According to the RNAGym collection of RNA variant scans (doi:10.7554/elife.80360):

B1: HDV Ribozyme (parent)
chain: GGCCGGCAUGGUCCCAGCCUCCUCGCUGGCGCCGGCUGGGCAACAUUCCGAGGGGACCGUCCCCUCGGUAAUGGCGAAUGGGACCCA

Variants of: B1
Experiment: self-cleavage, relative activity (ratio to wild type); higher = more cleavage; co-transcriptional

Variant | self-cleavage
GGCCGGCAUGGUCCCAGCCUCCUCGCUGGCGCCGGCUGGGCACCAUUCCGAGGGGACCGUCCCCUCGGUAAUGGCCAAUGGGACCCA [A43C G76C] | 0.604
GGCCGGCAUGGUCCCAGCCUCCUCGCUGGCGCCGGCUGGGCACCAUUCCGAGGGGACCGUCCCCUCGGUAAUGGCUAAUGGGACCCA [A43C G76U] | 0.95
GGCCGGCAUGGUCCCAGCCUCCUCGCUGGCGCCGGCUGGGCACCAUUCCGAGGGGACCGUCCCCUCGGUGAUGGCGAAUGGGACCCA [A43C A70G] | 0.643
GGCCGGCAUGGUCCCAGCCUCCUCGCUGGCGCCGGCUGGGCACCAUUCCGAGGGGACCGUCCCCUGGGUAAUGGCGAAUGGGACCCA [A43C C66G] | 0.364
GGCCGGCAUGGUCCCAGCCUCCUCGCUGGCGCCGGCUGGGCACCAUUCCGAGGGGACCGUCCCCUUGGUAAUGGCGAAUGGGACCCA [A43C C66U] | 0.306
GGCCGGCAUGGUCCCAGCCUCCUCGCUGGCGCCGGCUGGGCACCAUUCCGAGGGGACCGUCCCCUAGGUAAUGGCGAAUGGGACCCA [A43C C66A] | 0.302
GGCCGGCAUGGUCCCAGCCUCCUCGCUGGCGCCGGCUGGGCACCAGUCCGAGGGGACCGUCCCCUCGGUAAUGGCGAAUGGGACCCA [A43C U46G] | 0.415
GGCCGGCAUGGUCCCAGCCUCCUCGCUGGCGCCGGCUGGGCACCAUUCCGAGGCGACCGUCCCCUCGGUAAUGGCGAAUGGGACCCA [A43C G54C] | 0.403
GGCCGGCAUGGUCCCAGCCUCCUCGCUGGCGCCGGCUGGGCACCAUUCCGAGGGGACCGUCCGCUCGGUAAUGGCGAAUGGGACCCA [A43C C63G] | 0.185
GGCCGGCAUGGUCCCAGCCUCCUCGCUGGCGCCGGCUGGGCACCAUUUCGAGGGGACCGUCCCCUCGGUAAUGGCGAAUGGGACCCA [A43C C48U] | 0.619
GGCCGGCAUGGUCCCAGCCUCCUCGCUGGCGCCGGCUGGGCACCAUUGCGAGGGGACCGUCCCCUCGGUAAUGGCGAAUGGGACCCA [A43C C48G] | 0.449
GGCCGGCAUGGUCCCAGCCUCCUCGCUGGCGCCGGCUGGGCACCAUUCCGAGGGGACCGUCCCCUCGGGAAUGGCGAAUGGGACCCA [A43C U69G] | 0.68
GGCCGGCAUGGUCCCAGCCUCCUCGCUGGCGCCGGCUGGGCACCAUUCCGUGGGGACCGUCCCCUCGGUAAUGGCGAAUGGGACCCA [A43C A51U] | 0.324
GGCCGGCAUGGUCCCAGCCUCCUCGCUGGCGCCGGCUGGGCACCAUUCCGACGGGACCGUCCCCUCGGUAAUGGCGAAUGGGACCCA [A43C G52C] | 0.386
GGCCGGCAUGGUCCCAGCCUCCUCGCUGGCGCCGGCUGGGCACCAUUCCGAAGGGACCGUCCCCUCGGUAAUGGCGAAUGGGACCCA [A43C G52A] | 0.511
GGCCGGCAUGGUCCCAGCCUCCUCGCUGGCGCCGGCUGGGCACCAUUCCGAUGGGACCGUCCCCUCGGUAAUGGCGAAUGGGACCCA [A43C G52U] | 0.402

Variant | self-cleavage
GGCCGGCAUGGUCCCAGCCUCCUCGCUGGCGCCGGCUGGGCACCAUUCCGAGGGGACCGUCCCCUCGCUAAUGGCGAAUGGGACCCA [A43C G68C] | 0.283
GGCCGGCAUGGUCCCAGCCUCCUCGCUGGCGCCGGCUGGGCACCAUUCCGAGGGGACCGUCCCCUCGGUAAUGGCGAAUGGGGCCCA [A43C A83G] | 0.0923
GGCCGGCAUGGUCCCAGCCUCCUCGCUGGCGCCGGCUGGGCACCAUUCCGAGGGGACCGUCCCCUCGGUAAUGGCGAAUGGGCCCCA [A43C A83C] | 0.332
GGCCGGCAUGGUCCCAGCCUCCUCGCUGGCGCCGGCUGGGCACCAUUCCGAGGGGACCGUCCCCUCGGUAAUGGCGAAUGGGUCCCA [A43C A83U] | 0.161
GGCCGGCAUGGUCCCAGCCUCCUCGCUGGCGCCGGCUGGGCAGCUUUCCGAGGGGACCGUCCCCUCGGUAAUGGCGAAUGGGACCCA [A43G A45U] | 0.584
GGCCGGCAUGGUCCCAGCCUCCUCGCUGGCGCCGGCUGGGCAGCCUUCCGAGGGGACCGUCCCCUCGGUAAUGGCGAAUGGGACCCA [A43G A45C] | 0.0504
GGCCGGCAUGGUCCCAGCCUCCUCGCUGGCGCCGGCUGGGCACCAUUCUGAGGGGACCGUCCCCUCGGUAAUGGCGAAUGGGACCCA [A43C C49U] | 0.684
GGCCGGCAUGGUCCCAGCCUCCUCGCUGGCGCCGGCUGGGCACCAUUCAGAGGGGACCGUCCCCUCGGUAAUGGCGAAUGGGACCCA [A43C C49A] | 0.172
GGCCGGCAUGGUCCCAGCCUCCUCGCUGGCGCCGGCUGGGCACCAUUCCGAGGGGACCGCCCCCUCGGUAAUGGCGAAUGGGACCCA [A43C U60C] | 0.532
GGCCGGCAUGGUCCCAGCCUCCUCGCUGGCGCCGGCUGGGCACCAUUCCGAGGGGACCGUCCCCUCGGUAAUGGCGAAUGGGACCCC [A43C A87C] | 0.407
GGCCGGCAUGGUCCCAGCCUCCUCGCUGGCGCCGGCUGGGCACCAUUCCGAGGGGACCGUCCCCUCGGUAAUGGCGAAUGGGACCCG [A43C A87G] | 0.306
GGCCGGCAUGGUCCCAGCCUCCUCGCUGGCGCCGGCUGGGCACCAUUCCGAGGGGACUGUCCCCUCGGUAAUGGCGAAUGGGACCCA [A43C C58U] | 0.671
GGCCGGCAUGGUCCCAGCCUCCUCGCUGGCGCCGGCUGGGCACCAUUCCGAGGGGACGGUCCCCUCGGUAAUGGCGAAUGGGACCCA [A43C C58G] | 0.443
GGCCGGCAUGGUCCCAGCCUCCUCGCUGGCGCCGGCUGGGCACCAUUCCUAGGGGACCGUCCCCUCGGUAAUGGCGAAUGGGACCCA [A43C G50U] | 0.432
GGCCGGCAUGGUCCCAGCCUCCUCGCUGGCGCCGGCUGGGCACCAUUCCGAGGGGACCGUCCCCUCGGUAGUGGCGAAUGGGACCCA [A43C A71G] | 0.762
GGCCGGCAUGGUCCCAGCCUCCUCGCUGGCGCCGGCUGGGCACCAUUCCGAGGGGACCGUCCCCUCGGUAAUUGCGAAUGGGACCCA [A43C G73U] | 0.604
